Reference: the domain aggregation screens of Martell et al. (2025)

assay: soluble fraction after stress (log2 fold change); higher = more stays soluble; pooled small domains, quantitative proteomics; details: stress: pH 4
How it was run: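 Pooled custom libraries of small protein domains were subjected to pH 4 and measured by high-throughput quantitative proteomics. The log2 fold change in soluble amount per domain is reported, higher values meaning more remained soluble. This is used as a measure of aggregation propensity.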

Sequence | soluble fraction (log2)
HMLAKYEIIKQDIIQMIEEKKFKPGDKIYSEGELKKIYNVSSTTVVRALQDLVLSGYLIRKQGEGTYVRK | 0.222
HMEKIKNLTVTEFNLIANKNPSGSYDRITREALLHIIHKLESSYEAHTDLERKLFYKFRKAKFNAL | -0.715
HMGQPRPLTAEDFDFLSDDEIAEMRKALSNGEMLRLRELIAQIGEKRPFLAERLLVLAKQYNYEDLSRLLE | -0.831
HMGATYSQFLDQVDGGNVQKVTFSGDMRSGTNQISYTTRSGQSATITAPMDRDLINILRAKNVEIVQEEP | 0.22
HMEIFYSARAWAKLNDLVATRTYLQHLGAIAGRIGRSEGLSPDRIPDGRDGAVNGWPLWVWDRAYAEVS | -0.245
HMHQGTIEVGSIVHIEGQKALGTILSLTQREAIVGLGALKTTIPLKRLHLATEAEARRHKKSVTPQEAV | 0.284
HMQVSIGERVKLARMSAGLNQRQLGKEMGMSAMAISKYETGEVVPNSRVLIQLSQTLHVPLDFFFRS | 0.0627
HMKEEDYEVFMRLINVRGIGPKSALNILGVISGQEMIQAIENDDIKRLKSLPGIGAKTAGQIVLDLKGKFV | -0.705
HMPAFWILAVLAGGRRHGYQIMREAALSSEGLVTLKPTTLYAALERLERDGAIQQDGEEIVDGRVRRYYRI | -0.305
HMKRDYELPAFIETYLKKNHVAIDTKSAAMIAEHIGADLSRLISELDKVMISLPDDDRRVTPDVVEREI | -0.436
HMLEDDTVNTAEGIKIGDSFAAVTKAYGTDYVAAGNTYAYSKDKMTLTFVMNNDKVSTISYSLLTS | -0.412
HMNLSPADFSSVRNALGLSLSTVAKESGINRNYLSNFEKKKHFLEETAKVKLRDYYMSIDPDAFAAAL | -0.291
HMELLEVSVIIREADSTGWSAARQGMEQAAADLGAELRFLTLSQSNSAEEQRSLLAREVEGGADAVVLV | ≥ 0.43
HMQELGVISEGKYNIELNMVSWNDREPKYDIRSWAPDHSRMGKGISLTEEEMERLVELWNTRNE | -0.802
HMSADDLVSRTQAIVAELKDLEGPLLPILHSVQEAFGHVPDEVKPVIAEALNLSRAEVHGVVSFYHDFRAH | -0.571
HMLRRNQVQSQVIPRENGSYVVELQLRDDVDSILRLELTAATEAMARDLADRFRQDPEGVYTRLLSALY | -1.57
HMSAPRRGETTAASLNLRAGPATDADILAQLPERTPLRVLQEDGEWLRVETHGNEGFVHRQFVAIPGDEP | -0.347
HMGDGMEVWVNGSPVNLTGKDSFIFVDIFDFIDFDLTASKGRLIVIKVNGEYAEYTRPLHNGDTIEIYWEE | -0.638
HMKSLDDVISKFRPTGSENKIDFRKRVISEIHAQGFFKIKGSVNHVAKALGVTRYTVYNYLDKLND | ≥ 0.43
HMGNNTEITYSEFIRQAEAGNVQYVTVDGEKLLISATDGKSYYTINPRDDQMTDRLLNSGVEIRAEPQ | -0.482
HMGTPEQSAQFEQVLEELKNVPGPVMKAMQRAQDIYGYLPIEIQSRIGQAFGVSLEEVYGIATFYSQFNL | -2.6
HMIKEVEYSQFLQMTDQGEVGKVEINEQENSILFTDKAEKNIYKTGMVEDAELSMRLYEAGIPFSGQI | -2.29
HMRFTVSDKMDMLLKSLSAGQSMPFKSLFASASTKSEVIVTFLALLELMKLNQFVVWQDQILGEIEIERR | -0.162
HMINLDYILELIFEKNNKTKDKTALIEEIRGVIRASVGNRAKESLIVDFINDTDLDTITDKASIIESFFEY | -2.64
HMETEQVEMIRVVGMHVDEAKKALLDLGLSPEIKYEESSSYDAGTVLRASVQDGLMIDKGTNIVLTVAEA | -0.549

Sequence | soluble fraction (log2)
HMGAWQQTGFFRNRENAESLAEVLRQRGFSPVVREDTRPSGTVYYAVLVPDDGTTAARLKDAGIDSYPV | 0.367
HMQIEQVDYGTFMTMIDDKKIDKVEIKDNQILFIGKDDNKKYKTGIVQDPQLAERLHASGAVFSQDI | -0.158
HMDIDASEVRGIISQYINEPDGRVSYILETIQKKYRYLPEEAIRIVAQELEVPLTQLFGVATFYAAFSL | 0.0192
HMRTQEELVAEVREQMEAMGTIATLYVELYESSEERLVGGVIFEDERHYRFVYEDGLLHYEEEK | -1
HMATGIKAVDNVFGWMNLEQVAKTVGLDIPSVLRASGLPEDTPVDISIKKIPGVDDEELKDSLRQYIEKS | -0.237
HMTQEQKQQISDQLRAYVEQKGSGNKAAASMNGVSSATISKVLAGKWETISEDMWRSIAAQTGH | -0.156
HMSPEWTPAEQDAIDKASEGEYGEALQRVLSGDYEPMDIPDALWGVQQVADKDTYSSIQKKIADIGN | 0.422
HMQISLAAARVNAGLTQEEVAKAMKVGKQTIVSWEKGNSEPKMSQSRELSELYKIPLDYIFYP | 0.138
HMGEPLTVVAAAGGDRLDRWLAGQLAGRSRAEIQRWIEAGQVTLAGRSLKASYRLSAGDAIDVAIPPPE | -0.0638
HMSSVTGMERFLSSGAVKGIGKTMAARIVEHFGTETMTVLESFPERLAEVPGIGAKKAEAIGQSYSEISD | -0.259
HMQLGQMIVKLRKEQGLTQETFAKKFNVTRQTVSNWENEKSYPDLHTLVKISDEFHLSLDILLK | 0.272
HMKRPEPESPEAERRSQRAADWLVRRDRGLTAAEQDEFLQWLAIDPRHGEWFALHRSVVGEFSA | -1.12
HMEQMSLISKKKGERIDKFLGENLGDLSRSYIQKLLKDGLILVNGKKVKANYKLNEGDQIDVEVPDP | 0.407
HMKIDNIIIYITGGVKKEGVYELPDGSRISDAIEQAEGLKANADTSSINLAYKLEDGMKIKIPLQGEN | -0.664
HMEEFGRRLKERMIDKNMTEAELAQKTELWSSILTSYLKGERFPGYYTLLRIAEALDVSIDFLLGLRDEPE | -2.01
HMYVYEPGEFAVRGSILDVYSYASEFPYRIDFFGDDVESIRTFEVQTQLSKEAKDRVSIVPDTEQ | -0.585
HMIPKIIDITDLNEEVREVIEEYMKRKRVEKYHIYQDSKGQIFIISGSAIIRYDSKLNNLYYL | -0.395
HMLPSWPGVSEFEVARLLRRGRARGSLTLDEVIDVVRDAELTSELIAGIRSSLRAEGIDFEET | -1.85
HMKTEIGQAMRKLRKAKKMTQDTLAEKLGVAPANISRYEKGQQGIEVDKLPTLADALGVSVPEFFAIASG | -0.142
HMLTRQNFHGIKLPTIHEYIDLLNSRVNANIDKTNNWQSSVSHLRTYLNSHNINAVSKESINNYIDERLN | 0.0397
HMRTLGADLRALRKARGLTLAGMADNMGKSVGWMSQIERDISEPSISDLRALAKLLDVSVSSLFR | -0.557
HMSGAERAAALLVALGPEVASEIMKFLDDESIQKLASEIAKIEVLSPQEKEDLIGQFLLELKKT | -0.982
HMRDQQHNIYLLEKAKRLYEEFLGDNRHIIAAEMARFEAVLETQDAIIIQRAQQQFSEFLNRFDG | -1.2
HMYDDEELDVLAHRPIESYTDAELAMLREVAETLLETDYEGWLKSLSMRGILLPPEILQLVT | -1.29
HMASITLDQAKEIALTHAGQTADAVWFEKAEQDYDDGILVYELEFAAKGTEYEYEIDAQTGAIREYKWDD | 0.0206

Sequence | soluble fraction (log2)
HMAELVISVKADGTIHYQDRQLTKEALAAVLETRPEALLNLYVDEKAPFEAFVGVVDIARLKRGGHFVIST | -0.947
HMTKLTPLEVNLYAKKLANDPEFGSKHIEPGESFSQAEERLRVQLSQQEYVQKYSKYLKKLKASA | 0.0433
HMDFFTAAPEEDEIGKRIDVYIAEYKEELSRSRVQKLIENGLVTVNGKAVKSNYKLRKGDILEVEIPDPE | -0.00543
HMQPRYMLIKTAILDAIERGEMKPGSQVPSENQLAQQHNVSRMTARRALSEMVDDGILMRSQGIGTFVSD | -0.591
HMGEELIEIQNLRNKERREAEAILKNLDLVPVIQEQFDDTVPINRVITTDPGPDSTVKKGTTVMIYVSKGP | 0.289
HMNDPIGDMLTRIRNAQMRGKSTVSTPASKLRAWVLEVLASEGYIRGFERATTDNGQGELVISLD | -0.253
HMQRYVVDENLKLDKKDINHIINVMRLNVNDQIKLINNGTIYDAIITKIEKNNVLYEIIKKEESK | -0.809
HMSSQADEEALFKLLAANPYSDEQLEEIRIAIGSGIAYKDIIRIADIGNTAERMKQLRLEFTKDTAN | -0.353
HMNIYIEFGRRLAFIRQNSKLSQSQIAQKLNIAQSTYAGYEKGVRKIPLEIIVQLSKILNISPTILILG | -0.618
HMAAMSLGERIGAHRKRMGISQEELGHRMGVSRQAVSKWETGRAVPDMENLLALARLFGVPVSELAD | -0.0628
HMTEPLTKREKEVLLLLPRGLTAKAMASELFLTEATIKSHLAAIFRKFKVVNRTQAIAIAVESKILT | -1.1
HMVNHVGITVSNLERSIQFYEALTGKKIANQDTIGGKRMAQTQGLADTLIKYANLHLDNLNIDLLEYVE | -0.448
HMPGTPADQVAELQTKVGTETKTGDMITQDDVKLLQTALDPLAKMNDRIQAAKILESKGIVTSDGNLRT | 0.0934
HMSIITLFQEINAAVAEATGGRVPESVVQNFILGKDVVIPEDVKEIIISKLKAFATDIEGMLEESGFD | -2.59
HMKLSDDIIVDTIKEIIEENKNMIEQRKMGAMGPLMGKAMAKFKGKADGQTVSNVIKDEILNIIN | 0.0647
HMQKPELLAPAGSLEKAKTAFKYGADAVYMGTSNLSLRSRVTVDDDELIKTIEYAHSINKKVYAALNIYAR | 0.134
HMTLHEAMEKLFRQVGRPMTTKEIAEKLNENKWYQKADGSPLTPYQIYGRAKNYPALFHREGSIIYLKGS | 0.136
HMGFAANLSRLMEYHNISMYRLAKEVGVHQTTVKNWLEEESEPKIAALEKIVGLLGVSYDELLG | -1.72
HMARTIINLPLRNSVDESYNTTVNILQANGFKEVSYNGETVWKKGTGLLTAMQYIKIEFTDTTLVVSGWVQ | -0.11
HMSIASASVKEKIRDIVSSEPPQKPFSDAKIAEILAEDGIAIARRTVAKYREEIGIPTKSLRKR | 0.292
HMNAEWMFDARKIPGLVMNYLRRIAVRAIEEKHYSPELVADLFGIDRTSIYDWLRKYRQQGEEALDTRKA | 0.0142
HMNFNYPVIVKNSRINVSGVLSAAKLYTINGQLLQSYKGSGEFTSKTLTKGIYILQVDNARTKVLV | ≥ 0.43
HMEDPLAAQWKQGRKLFHDDYGYGIISKAFTAGDELVIMVQFENGGEKRFLPKYQAHNLLLVEQ | -1.3
HMSNTGDIIRKLREESGVTAKELAHRIGLSASQMSRLESGKRRINSEVLTRIARALEVAPSQLID | 0.17
HMRRKDIEFTNTMLEELYRHNSKWYDAVVRAYALEIPQKQIAEEMGIRLEAFQSMLFRAKKWIKTKYEADY | -0.432
